We go through one molecule from US11110182B2, “Multifunctional RNA nanoparticles and methods for treating cancer and therapeutic resistant cancer” (University of Cincinnati, priority 2016, dated 2021).

The data set is described as follows: Stability analyses (RNase A, 10% FBS DMEM, 8 M urea) by native PAGE. It is filed as in vitro ADME. To be noted: 37° C. The text has this: FIG. 1A) The scheme of the pRNA-HER2apt-siMED1 (p-HER2-siMED1) (SEQ ID NO: 15) structure. FIG. 1B) The p1 and p2 strands of pRNA-HER2apt-siMED1_were transcribed using an in vitro RNA transcription system and separated in 8% denatured PAGE gel. FIG. 1C) pRNA-HER2apt-siMED1 nanoparticles were generated by annealing equal molar of strands p1 and p2, and subjected to 8% native PAGE gel electrophoresis. FIG. 1D) DLS assay of hydrodynamic size of pRNA-HER2apt-siMED1 nanoparticle. FIG. 1E) The Tm value of pRNA-HER2apt-siMED1 nanoparticle determined by TGGE assay. FIG. 1F) The atomic force microscopy (AFM) images of pRNA-HER2apt-siMED1 nanoparticles. FIG. 1G) The stability of control unmodified and 2′-F modified pRNA nanoparticles was examined by 8% native PAGE gel electrophoresis after RNase A, 10% FBS-supplemented DMEM medium and 8M urea treatments for the indicated time at 37° C.
Cell culture. Human breast cancer luciferase-overexpressing BT474 and MDA-MB-231 cells were maintained in DMEM medium (Hyclone, Thermo Scientific) supplemented with 10% fetal bovine serum (FBS, Sigma) and 1% penicillin/streptomycin (Corning) at 37° C. in a humidified atmosphere with 5% CO2.^53 • Generation of pRNA nanoparticles. The two strands of pRNA were synthesized with the DNA templates, which were amplified with overlapping primers (Sigma) by PCR methods, using a T7 promoter-controlled in vitro RNA transcription system as previously described^33 (Table 1). All the CTP and UTP used for synthesis of the pRNA nanoparticles were 2′-fluoro modified, except the control unmodified pRNA nanoparticles used in the stability assays. […] The hydrodynamic diameter and Tm value of pRNA nanoparticles were determined using dynamic light scattering and TGGE assay, respectively, as previously described.^54 The AFM imaging of the pRNA nanoparticles was performed at the University of Nebraska Medical Center imaging facility as previously reported.^55 Briefly, the pRNA nanoparticles (5 μL) were deposited on APS modified mica ^56 for a total of 2 min of incubation time. […]

B1: pRNA-HER2apt-siMED1: 3-WJ pRNA nanoparticle bearing a HER2-targeting RNA aptamer and two different MED1 siRNAs; strands p1 SEQ ID NO: 3, p2 SEQ ID NO: 4 (nucleic acid)
chain 1: GGACAGUGAAAGUGAGUCAAAGGAUCAAUCAUGGCCAAAGAUGUUACUUUGAGAGCCUU
chain 2: GGCUCUCAAAGUAACAUCUAAGGCCAUGUGUAUGUGGGGGGAGGACGAUGCGGUCUGCUGUGCUUGAUAUGCCCCAGACGACUCGCCCCCCACAUACUUUGUUGAUCCAAUGACUCACUUUCACUGUCCUU
modifications: 2'-F modification; third strand may lack entry; pRNA-HER2apt-siMED1, p1; pRNA-HER2apt-siMED1, p2
As to B1, the “stability in 10% FBS-supplemented DMEM medium” value is recorded as “highly stable”. Moreover, the “resistance to RNase A treatment” value (10 μg/mL RNase A) is reported as “resistant”. For the same molecule, the “structure in 8M urea” value (8M urea) is “maintained their structure”.
